Data reported in IntAct's records for PubMed 30283133.

B1: D-alanyl carrier protein (Streptococcus thermophilus (strain ATCC BAA-250 / LMG 18311)), Q5M4V3 (parent)
chain: MDVKAEVIEIIDELFMEDVSDMMDEDLFDAGVLDSMGTVELIVELESRFDIRVPVSEFGRDDWNTANKIVEGVTELRNA
partner: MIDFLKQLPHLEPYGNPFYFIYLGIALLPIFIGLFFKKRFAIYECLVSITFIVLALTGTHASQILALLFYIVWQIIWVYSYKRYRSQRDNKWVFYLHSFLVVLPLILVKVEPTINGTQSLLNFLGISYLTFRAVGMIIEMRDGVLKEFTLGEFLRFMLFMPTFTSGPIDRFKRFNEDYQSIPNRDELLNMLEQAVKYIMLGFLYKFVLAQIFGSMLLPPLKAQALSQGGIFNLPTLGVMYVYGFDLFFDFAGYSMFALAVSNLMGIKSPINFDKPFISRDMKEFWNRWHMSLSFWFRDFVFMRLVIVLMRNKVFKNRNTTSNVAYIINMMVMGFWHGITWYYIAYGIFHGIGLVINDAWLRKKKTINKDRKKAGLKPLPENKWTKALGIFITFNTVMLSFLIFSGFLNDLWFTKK
B2: Teichoic acid D-alanyltransferase (Streptococcus thermophilus (strain ATCC BAA-250 / LMG 18311)), Q5M4V4 (parent)
chain: B1 partner
partner: B1 chain

Variants of: B1
Settings: with dltb_strt2 dltB

Variant | effect of a mutation on the interaction
V39D | decreasing interaction
V39R | decreasing interaction

Variants of: B1
Settings: with dltb_strt2 dltB, Q5M4V4

Variant | effect of a mutation on the interaction
V39D | decreasing interaction strength
S35A | decreasing interaction

Variants of: B2
Settings: with dltc_strt2 dltC

Variant | effect of a mutation on the interaction
V305D;I306D | disrupting interaction
V305D | decreasing interaction

Variants of: B2
Settings: with dltc_strt2 dltC, Q5M4V3

Variant | effect of a mutation on the interaction
V305D;I306D | disrupting interaction strength
V305R | decreasing interaction strength
